Data published in article PMC8038143, “Conformation-Specific Inhibitory Anti-MMP-7 Monoclonal Antibody Sensitizes Pancreatic Ductal Adenocarcinoma Cells to Chemotherapeutic Cell Kill” (Cancers, 2021).

How the values were obtained:
[1] = biological target: T1, recombinant catalytic human MMP-7 (active enzyme) (Homo sapiens, UniProt P09237); assay: ELISA; 96-well plate coated with MMPs at 5 mg/mL; GSM-192 incubated at 25 °C for 1 h; detected with goat anti-Fab/anti-mouse antibody and peroxidase-conjugated anti-goat antibody; four-parametric sigmoidal fit; conditions: both partners purified
T1 construct: matrix metalloproteinase 7 (matrilysin), human, active form: catalytic domain without the propeptide; also called hMMP-7; matrilysin; source: recombinant

[2] = biological target: T1, recombinant catalytic human MMP-7 …; assay: cell-based or functional assay

T1 sequence (P09237 95-258): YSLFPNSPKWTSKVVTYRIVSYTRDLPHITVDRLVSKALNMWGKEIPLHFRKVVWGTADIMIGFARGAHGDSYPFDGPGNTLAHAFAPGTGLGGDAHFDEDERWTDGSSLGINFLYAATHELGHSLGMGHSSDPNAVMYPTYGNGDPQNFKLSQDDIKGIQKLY

EC50 [1]: 43 ± 1 nM
B1: GSM-192 anti-MMP-7 monoclonal antibody (antibody, V domains shown)
VH: EVQLQQSGPELVKPGASVKIPCKASGYTFTDYNMDWMKQSHGKSLEWIGHINPNNGGTFYNQKFKDKATFIVDKSSNTAYMELRSLTSEDTAVYFCARGGGLRRGPFAYWGQGTLVTVS
VL: DIVTQSPASLAVSLGQRATISCRASESFDSYGNTFVHWYQQKPGQPPKLLIYLVSNLESGVPAGFRGRGSRTDFTLTIDPVEADDAATYYCQQNNEDPYTFGGGTKLEIK
notes: Whole mouse monoclonal antibody; source: mouse hybridoma (BALB/c B cells fused with NSO myeloma cells), supernatant, purified (protein A column)
death of AsPC-1 PDAC cells treated with GSM-192, IC50 [2]: 2300 nM
death of CFPAC-1 PDAC cells treated with GSM-192, IC50 [2]: 4300 nM
